Test results: patent US9527898B2, “Oxyntomodulin derivatives and pharmaceutical composition for treating obesity comprising the same” (Hanmi Science Co., Ltd., dated 2016)
Non-standard residues stand in square brackets, D forms with d. No end group written: not given here. *: point of attachment. Acetyl(2-(4-imidazolyl)) = O=C(Cc1c[nH]cn1)*; Aib = CC(C)(N)C(=O)O

B1: oxyntomodulin derivative of SEQ ID NO. 11 (peptide)
peptide: HGEGTFTSDLSRQMEEEAVRLFIEWAAHSQGTFTSDYSRYLDK
modifications: not fully specified (residue 1, N-terminus); also: N-terminal CA (4-imidazoacetyl), whether it replaces His1 not given here
B2: oxyntomodulin derivative of SEQ ID NO. 24 (peptide)
peptide: H[Aib]QGTFTSDYSKYLDEKRAKEFVQWLMNTC
modifications: also: possible ring formation not assignable from text
B3: oxyntomodulin derivative of SEQ ID NO. 23 (peptide)
peptide: H[Aib]QGTFTSDYSKYLDEKRAKEFVCWLMNT
B4: oxyntomodulin derivative of SEQ ID NO. 31 (peptide)
peptide: Y[Aib]QGTFTSDYSKYLDEKRAKEFVQWLMNTC
B5: oxyntomodulin derivative of SEQ ID NO. 17 (peptide)
peptide: HSQGTFTSDYSRYLDEEAVRLFIEWIRNTKRNRNNIA
modifications: not fully specified (residue 1, N-terminus); also: N-terminal CA (4-imidazoacetyl), whether it replaces His1 not given here
B6: oxyntomodulin derivative of SEQ ID NO. 30 (peptide)
peptide: H[Aib]QGTFTSDYAKYLDEKRAKEFVQWLMNTC
B7: oxyntomodulin derivative of SEQ ID NO. 25 (peptide)
peptide: H[Aib]QGTFTSDYSKYLDEKRAKEFVQWLMNTC
modifications: also: possible ring formation not assignable from text
B8: oxyntomodulin derivative of SEQ ID NO. 28 (peptide)
peptide: H[Aib]QGTFTSDYSKYLDEKRAKEFVQWLMNT
B9: oxyntomodulin derivative of SEQ ID NO. 6 (peptide)
peptide: {Acetyl(2-(4-imidazolyl))}-HGEGTFTSDLSRQMEEEAVRLFIEWAAHSQGTFTSDYSKYLD
B10: oxyntomodulin derivative of SEQ ID NO. 13 (peptide)
peptide: HSQGTFTSDYSRYLDEEAVELFIEWLMNTK

Assays:
human GLP-1 receptor = human GLP-1 receptor (human, UniProt P43220); assay: cell-based or functional assay
human glucagon receptor = human glucagon receptor (human, UniProt P47871); assay: cell-based or functional assay

Binder	EC50 (nM), cAMP, CHO/GLP-1R (human GLP-1 receptor)	EC50 (nM), cAMP, CHO/GCGR (human glucagon receptor)
B1	> 1000 nM	> 1000 nM
B2	1.43 nM	–
B3	2.46 nM	5.8 nM
B4	12.5 nM	1 nM
B5	–	> 1000 nM
B6	2.2 nM	80.2 nM
B7	1.9 nM	–
B8	–	0.3 nM
B9	–	> 1000 nM
B10	> 1000 nM	> 1000 nM
